Measured values from US20230391882A1 (NUMAB THERAPEUTICS, published 2023).
Where two headings read alike, the source gives them in different places. Values belong to the binder of their own block, whether it stands above or below them.

Key:
[1] = molecular target: soluble mesothelin (sMSLN) (UniProt Q13421 296-580, limits assumed); test: cell-based or functional assay
[2] = molecular target: T1, mesothelin (MSLN) on target cells (H226, MeT-5A) (UniProt Q13421 37-598, limits assumed); test: cell-based or functional assay
[3] = molecular target: T1, mesothelin (MSLN) on target cells …; test: cell-based or functional assay; remark: listed apart in the source
[4] = molecular target: T1, mesothelin (MSLN) on target cells …; test: cell-based or functional assay; remark: listed apart in the source
[5] = molecular target: T1, mesothelin (MSLN) on target cells …; test: cell-based or functional assay; remark: listed apart in the source
[6] = molecular target: T1, mesothelin (MSLN) on target cells …; test: cell-based or functional assay; remark: listed apart in the source
[7] = molecular target: T1, mesothelin (MSLN) on target cells …; test: cell-based or functional assay; remark: listed apart in the source
[8] = molecular target: T1, mesothelin (MSLN) on target cells …; test: cell-based or functional assay; remark: listed apart in the source
[9] = molecular target: T1, mesothelin (MSLN) on target cells …; test: cell-based or functional assay; remark: listed apart in the source
[10] = molecular target: T1, mesothelin (MSLN) on target cells …; test: cell-based or functional assay; remark: listed apart in the source
[11] = molecular target: recombinant human mesothelin (human MSLN) (human, UniProt Q13421 296-580, limits assumed); test: KD ratio told in running text; method not given
[12] = molecular target: T1, mesothelin (MSLN) on target cells …; test: cell-based or functional assay; remark: listed apart in the source
[13] = molecular target: T2, human CD137 on the transgenic NF-kB Jurkat reporter cell line (human, UniProt Q07011 24-255); test: cell-based or functional assay
human PDL1 [14] = molecular target: T3, human PDL1 (human, UniProt Q9NZQ7 19-238, limits assumed); test: cell-based or functional assay
[15] = molecular target: T2, human CD137 on the transgenic NF-kB …; test: cell-based or functional assay; remark: listed apart in the source
human PDL1 [16] = molecular target: T3, human PDL1; test: cell-based or functional assay; remark: listed apart in the source
[17] = molecular target: T2, human CD137 on the transgenic NF-kB …; test: cell-based or functional assay; remark: listed apart in the source
human PDL1 [18] = molecular target: T3, human PDL1; test: cell-based or functional assay; remark: listed apart in the source

B3: PRO1480 (38-27-A11 sc02 scDb-i/37-20-B03 sc09.1 scDb-o/19-01-H04 sc03 scFv) (other)
chain: DIQMTQSPASLSASVGDRVTITCQASQSIGTYLAWYQQKPGKPPKLLIYRAFILASGVPSRFSGSGSGTDFTLTISSLQPEDFATYYCQSNFYSDSTTIGPNAFGTGTKVTVLGGGGGSEVQLVESGGGLVQPGGSLRLSCAASGFSFSANYYPCWVRQAPGKGLEWIGCIYGGSSDITYDANWTKGRFTISRDNSKNTVYLQMNSLRAEDTAVYYCARSAWYSGWGGDLWGQGTLVTVSSGGGGSGGGGSGGGGSGGGGSIQMTQSPSSLSASVGDRVTITCQASQSISNRLAWYQQKPGKAPKLLIYSASTLASGVPSRFSGSGSGTDFTLTISSLQPEDFATYYCQSTYYGNDGNAFGTGTKVTVLGGGGGSEVQLVESGGGLVQPGGSLRLSCAASGFSFNSDYWIYWVRQAPGKGLEWIASIYGGSSGNTQYASWAQGRFTISRDNSKNTVYLQMNSLRAEDTAVYFCARGYVDYGGATDLWGQGTLVTVSSGGGGSGGGGSIQMTQSPSSLSASVGDRVTITCQSSESVYSNNQLSWYQQKPGQPPKLLIYDASDLASGVPSRFSGSGSGTDFTLTISSLQPEDFATYYCAGGFSSSSDTAFGGGTKLTVLGGGGGSGGGGSGGGGSGGGGSEVQLVESGGGLVQPGGSLRLSCAASGFSLSSNAMGWVRQAPGKGLEYIGIISVGGFTYYASWAKGRFTISRDNSKNTVYLQMNSLRAEDTATYFCARDRHGGDSSGAFYLWGQGTLVTVSS
EC50 (read off the curve); NF-kB reporter gene assay [13]: ~70 pM | IC50 (read off the curve); NFAT reporter gene assay, blocked ligand PD-1 (human PDL1 [14]): ~500 pM

B4: PRO1124 (38-02-A04 sc06 Full scDb-i/33-03-G02 sc01 scDb-o) (bispecific antibody)
chain: DIQMTQSPSSLSASVGDRVTITCQASQSINDYLAWYQQKPGKAPKLLIYKASTLASGVPSRFSGSGSGTDFTLTISSLQPEDFATYYCQQGYIITDIDNVFGTGTKVTVLGGGGGSQVQLQESGPGLVKPSETLSLTCKASGFSFSNSYWICWVRQPPGKGLEWIGCTFVGSSDSTYYANWAKGRVTISKDSSKNQVSLKLSSVTAADTAVYFCARHPSDAVYGYANNLWGQGTLVTVSSGGGGSGGGGSGGGGSGGGGSLQMTQSPSSLSASVGDRVTITCQASQSINNVLAWYQQKPGKPPKLLIYRASTLASGVPSRFSGSGSGTDFTLTISSLQPEDFATYYCQSSYGNYGDFGTGTKVTVLGGGGGSQVQLQESGPGLVKPSETLSLTCKVSGFSFSSGYDMCWIRQPPGKGLEWIGCVVAGSVDITYYASWAKGRVTISVDSSKNQFSLKLSSVTAADTAVYYCARKDAYSDAFNLWGQGTLVTVSS
EC50 (read off the curve); NF-kB reporter gene assay, rising part of the curve [15]: ~100 pM | IC50 (read off the curve); NFAT reporter gene assay, blocked ligand PD-1 (human PDL1 [16]): ~1000 pM

B5: PRO885 (38-02-A04 sc01 scDb-i/33-03-G02 sc01 scDb-o) (bispecific antibody)
chain: DIQMTQSPSSLSASVGDRVTITCQASQSINDYLAWYQQKPGKAPKLLIYKASTLASGVPSRFSGSGSGTDFTLTISSLQPEDFATYYCQQGYIITDIDNVFGTGTKVTVLGGGGGSQVQLQESGPGLVKPSETLSLTCKVSGFSFSNSYWICWIRQPPGKGLEWIGCTFVGSSDSTYYANWAKGRVTISVDSSKNQFSLKLSSVTAADTAVYYCARHPSDAVYGYANNLWGQGTLVTVSSGGGGSGGGGSGGGGSGGGGSIQMTQSPSSLSASVGDRVTITCQASQSINNVLAWYQQKPGKAPKLLIYRASTLASGVPSRFSGSGSGTDFTLTISSLQPEDFATYYCQSSYGNYGDFGTGTKVTVLGGGGGSQVQLQESGPGLVKPSETLSLTCKVSGFSFSSGYDMCWIRQPPGKGLEWIGCVVAGSVDITYYASWAKGRVTISVDSSKNQFSLKLSSVTAADTAVYYCARKDAYSDAFNLWGQGTLVTVSS
EC50 (read off the curve); NF-kB reporter gene assay, rising part of the curve [17]: ~300 pM | IC50 (read off the curve); NFAT reporter gene assay, blocked ligand PD-1 (human PDL1 [18]): ~2000 pM

Continued, in another order:

EC50 (read off the curve); activated CD8+ cells (CD69+) with H226 cells, with 500 ng/ml sMSLN [4]: ~40 pM | EC50 (read off the curve); activated CD8+ cells (CD69+) with H226 cells, without sMSLN [5]: ~2 pM | EC50 (read off the curve); activated CD8+ cells (CD69+) with H226 cells, with 50 ng/ml sMSLN [9]: ~8 pM
B1: PRO2000 (biMSLNlow affinity x CD3 x hSA) (other)
chain 1: DIQMTQSPSSLSASVGDRVTITCQASQNIYSNLAWYQQKPGKAPKLLIYDASDLASGVPSRFSGSGSGTDFTLTISSLQPEDFATYYCQQVRSSSDIDNPFGTGTKVTVLGGGGGSGGGGSGGGGSGGGGSQVQLVESGGGLVQPGGSLRLSCAASGFSLSSYAMGWVRQAPGKGLEWIGYISTINNTYYASWAKGRFTISRDNSKNTVYLQMNSLRAEDTAVYYCAREIRSGWVDYGFSIWGQGTLVTVSSGGGGSGGGGSEVQLVESGGGLVQPGGSLRLSCAASGFSLSSYDMSWVRQAPGKGLAWIGASYASGPTYYASWAKGRFTISRDNSKNTVYLQMNSLRAEDTATYFCARGGWTGTSHSNIWGQGTLVTVSSGGGSGGGSEVQLVESGGGLVQPGGSLRLSCAASGFSFSSSYWICWVRQAPGKCLEWVGCVFTGDGTTYYASWAKGRFTISRDNSKNTVYLQMNSLRAEDTATYFCARPVSVYYYGMDLWGQGTLVTVSS
chain 2: DIQMTQSPSSLSASVGDRVTITCQASQNIYSNLAWYQQKPGKAPKLLIYDASDLASGVPSRFSGSGSGTDFTLTISSLQPEDFATYYCQQVRSSSDIDNPFGTGTKVTVLGGGGGSGGGGSGGGGSGGGGSQVQLVESGGGLVQPGGSLRLSCAASGFSLSSYAMGWVRQAPGKGLEWIGYISTINNTYYASWAKGRFTISRDNSKNTVYLQMNSLRAEDTAVYYCAREIRSGWVDYGFSIWGQGTLVTVSSGGGGSGGGGSDVVMTQSPSSLSASVGDRVTITCQASQIISSRSAWYQQKPGQPPKLLIYQASKLASGVPSRFSGSGSGTDFTLTISSLQPEDFATYYCQCTYIDSNFGAFGCGTKLTVLGGGSGGSDIQMTQSPSSLSASVGDRVTITCQSSQSVFSNNYLAWFQQKPGQSPKRLIYSASTLASGVPSRFSGSGSGTDFTLTISSLQPEDFATYYCLGSYACSSADCYVFGTGTKVTVLG
decrease of potency of T-cell driven target cell killing in the presence of 500 ng/ml soluble MSLN [1]: 17 fold | increase of EC50 for killing high MSLN expressing target cells in the presence of 50 ng/ml sMSLN [1]: ≤ 6 fold | increase of EC50 for killing high MSLN expressing target cells in the presence of 500 ng/ml sMSLN [1]: ≤ 40 fold | T-cell driven cytotoxicity assay: EC50 for killing high MSLN expressing target cells against EC50 for killing MeT-5A cells [2]: ≥ 25 fold | specific killing of high MSLN expressing H226 cells by PBMCs in the presence of human serum albumin; killing potency against that of PRO1872 [2]: 75 fold | EC50 (read off the curve); specific killing of H226 cells, in presence of 50 ng/ml sMSLN [3]: ~30 pM | EC50 (read off the curve); specific killing of MeT-5A cells (low MSLN) [6]: ~100 pM | EC50 (read off the curve); specific killing of H226 cells, in presence of 500 ng/ml sMSLN [7]: ~200 pM | EC50 (read off the curve); specific killing of H226 cells (high MSLN) [8]: ~0.07 pM | EC50 (read off the curve); specific killing of H226 cells, no sMSLN [10]: ~10 pM

fold better binding affinity (KD) than the MSLN-BDs of PRO2000, PRO2562, PRO2566 and PRO2567 [11]: > 5 fold | EC50 (read off the curve); activated CD8+ cells (CD69+) with H226 cells, with 500 ng/ml sMSLN [4]: ~1000 pM | EC50 (read off the curve); activated CD8+ cells (CD69+) with H226 cells, without sMSLN [5]: ~20 pM | EC50 (read off the curve); activated CD8+ cells (CD69+) with MeT-5A cells (low MSLN) [12]: ~10 pM | EC50 (read off the curve); activated CD8+ cells (CD69+) with H226 cells, with 50 ng/ml sMSLN [9]: ~200 pM
B2: PRO1872 (MSLN x CD3 x hSA) (54-22-H03-sc01 scFv/28-21-D09-sc04 scDb-i/23-13-A01-sc02 diS scDb-o) (other)
chain: DVVMTQSPSSLSASVGDRVTITCQASQIISSRSAWYQQKPGQPPKLLIYQASKLASGVPSRFSGSGSGTDFTLTISSLQPEDFATYYCQCTYIDSNFGAFGCGTKLTVLGGGGGSEVQLVESGGGLVQPGGSLRLSCAASGFSLSSYDMSWVRQAPGKGLAWIGASYASGPTYYASWAKGRFTISRDNSKNTVYLQMNSLRAEDTATYFCARGGWTGTSHSNIWGQGTLVTVSSGGGGSGGGGSGGGGSGGGGSDIQMTQSPSSLSASVGDRVTITCQSSQSVFSNNYLAWFQQKPGQSPKRLIYSASTLASGVPSRFSGSGSGTDFTLTISSLQPEDFATYYCLGSYACSSADCYVFGTGTKVTVLGGGGGSEVQLVESGGGLVQPGGSLRLSCAASGFSFSSSYWICWVRQAPGKCLEWVGCVFTGDGTTYYASWAKGRFTISRDNSKNTVYLQMNSLRAEDTATYFCARPVSVYYYGMDLWGQGTLVTVSSGGGGSGGGGSDIQMTQSPSSLSASVGDRVTITCQASESIGNYLAWYQQKPGKAPKLLIYSASTLASGVPSRFSGSGSGTDFTLTISSLQPEDFATYYCQSTDYGDSYIFGTGTKVTVLGGGGGSGGGGSGGGGSGGGGSEVQLVESGGGLVQPGGSLRLSCAASGISVSNDYYMCWVRQAPGKGLEWIGCISTYIGNTHYASWAKGRFTISRDNSKNTVYLQMNSLRAEDTAVYYCAKNAGYPGYRYAIDLWGQGTLVTVSS
notes: also called MSLNlowKDxCD3xhSA
increase of EC50 for killing high MSLN expressing target cells in the presence of 50 ng/ml sMSLN [1]: ~8 fold | increase of EC50 for killing high MSLN expressing target cells in the presence of 500 ng/ml sMSLN [1]: > 75 fold | EC50 (read off the curve); specific killing of H226 cells, in presence of 50 ng/ml sMSLN [3]: ~600 pM | EC50 (read off the curve); specific killing of MeT-5A cells (low MSLN) [6]: ~10 pM | EC50 (read off the curve); specific killing of H226 cells, in presence of 500 ng/ml sMSLN [7]: ~5000 pM | EC50 (read off the curve); specific killing of H226 cells (high MSLN) [8]: ~5 pM | EC50 (read off the curve); specific killing of H226 cells, no sMSLN [10]: ~50 pM
